Assay results reported in the supplement of paper PMC7877785.
± gives the uncertainty stated by the source.

Assay: self-splicing fitness, log relative to wild type (ln ratio); higher = more splicing; Tetrahymena group I intron in knt gene, E. coli kanamycin selection, DiMSum; sequences stand for … in CUCUCU…GGAGGGAAAAGUUAUCAGGCAUGCACCUGGUAGCUAGUCUUUAAACCAAUAGAUUGCAUCGGUUUAAAAGGCAAGACCGUCAAAUUGCGGGAAAGGGGUCAACAGCCGUUCAGUACCAAGUCUCAGGGGAAACUUUGAGAUGGCCUUGCAAAGGGUAUGGUAAUAAGCUGACGGACAUGGUCCUAACCACGCAGCCAAGUCCUAAGUCAACAGAUCUUCUGUUGAUAUGGAUGCAGUUCACAGACUAAAUGUCGGUCGGGGAAGAUGUAUUCUUCUCAUAAGAUAUAGUCGGACCUCUCCUUAAUGGGAGCUAGCGGAUGAAGUGAUGCAACACUGGAGCCGCUGGGAACUAAUUUGUAUGCGAAAGUAUAUUGAUUAGUUUUGGAGUACUCGUGGUCG
In short: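 The eight P1ex-region nucleotides of an intron in the knt kanamycin-resistance gene on pET-22b(+) were all randomised and the library put into E. coli BL21(DE3). Six replicate transformations were grown overnight at 37°C or 30°C on LB agar with or without 25 μg/mL kanamycin, together with 100 μg/mL carbenicillin, 50 μM IPTG and 0.2% rhamnose. Colonies were pooled and amplicon-sequenced on an Illumina HiSeq 2500. Fitness from DiMSum is the error-weighted combination of wild-type-normalised replicate fold changes, kanamycin over none.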

Row | Sequence | self-splicing fitness (ln) (30 °C) | self-splicing fitness (ln) (37 °C)
1 | UAGAAGCAAUAUUACGAGCG | -0.732 ± 0.096 | -0.815 ± 0.13
2 | UAGAAGCAAUAUUACGAGGA | -3.7 ± 0.2 | -2.06 ± 0.15
3 | UAGAAGCAAUAUUACGCAGA | -3.4 ± 0.34 | -1.79 ± 0.18
4 | UAGAAGCAAUAUUACGCAUC | -3 ± 0.23 | -3.37 ± 0.31
5 | UAGAAGCAAUAUUACGCCUA | -0.42 ± 0.13 | 0.0572 ± 0.14
6 | UAGAAGCAAUAUUACGCGGA | -1.64 ± 0.13 | -0.655 ± 0.11
7 | UAGAAGCAAUAUUACGCGUA | -0.436 ± 0.11 | -0.472 ± 0.12
8 | UAGAAGCAAUAUUACGCUUU | – | -1.99 ± 0.3
9 | UAGAAGCAAUAUUACGGCGG | -0.497 ± 0.099 | 0.388 ± 0.12
10 | UAGAAGCAAUAUUACGUAAA | -2.04 ± 0.14 | -1.33 ± 0.14
11 | UAGCAGCAAUAUUACGAACU | -0.336 ± 0.18 | 0.618 ± 0.14
12 | UAGCAGCAAUAUUACGAAUG | -0.736 ± 0.072 | -0.47 ± 0.13
13 | UAGCAGCAAUAUUACGACAA | -1.68 ± 0.12 | -0.157 ± 0.14
14 | UAGCAGCAAUAUUACGACCC | – | -0.938 ± 0.41
15 | UAGCAGCAAUAUUACGACUG | -0.817 ± 0.14 | -0.556 ± 0.18
16 | UAGCAGCAAUAUUACGAGCG | 0.035 ± 0.078 | 0.235 ± 0.098
17 | UAGCAGCAAUAUUACGAUCG | -0.76 ± 0.093 | -0.0334 ± 0.12
18 | UAGCAGCAAUAUUACGCCGA | -0.884 ± 0.14 | 0.482 ± 0.14
19 | UAGCAGCAAUAUUACGCCGG | -0.94 ± 0.096 | -0.0813 ± 0.15
20 | UAGCAGCAAUAUUACGGACG | -0.528 ± 0.08 | -0.837 ± 0.1
21 | UAGCAGCAAUAUUACGGCCA | 0.54 ± 0.1 | 0.33 ± 0.16
22 | UAGCAGCAAUAUUACGGCCU | -0.225 ± 0.093 | 0.118 ± 0.12
23 | UAGCAGCAAUAUUACGUACA | -1.16 ± 0.091 | -0.0473 ± 0.1
24 | UAGCAGCAAUAUUACGUACC | -1.91 ± 0.38 | –
25 | UAGCAGCAAUAUUACGUCCC | -3.06 ± 0.41 | -1.7 ± 0.4

Row | Sequence | self-splicing fitness (ln) (30 °C) | self-splicing fitness (ln) (37 °C)
26 | UAGGAGCAAUAUUACGAACC | -3.08 ± 0.41 | –
27 | UAGGAGCAAUAUUACGCACA | -0.278 ± 0.33 | -0.212 ± 0.38
28 | UAGGAGCAAUAUUACGCACU | – | -0.383 ± 0.28
29 | UAGGAGCAAUAUUACGCGGA | -3.57 ± 0.38 | -2.52 ± 0.26
30 | UAGGAGCAAUAUUACGCGUG | -2.31 ± 0.12 | -0.579 ± 0.12
31 | UAGGAGCAAUAUUACGCUCG | -1.49 ± 0.21 | 0.196 ± 0.24
32 | UAGGAGCAAUAUUACGGAAU | -4.06 ± 0.36 | -2.51 ± 0.33
33 | UAGGAGCAAUAUUACGGAGA | – | -2.34 ± 0.38
34 | UAGGAGCAAUAUUACGGAGU | -1.77 ± 0.36 | –
35 | UAGGAGCAAUAUUACGGGAU | -3.21 ± 0.35 | -2.27 ± 0.37
36 | UAGGAGCAAUAUUACGGUUA | -1.64 ± 0.12 | 0.0427 ± 0.11
37 | UAGGAGCAAUAUUACGUAGU | -3.13 ± 0.3 | -1.81 ± 0.3
38 | UAGGAGCAAUAUUACGUAUU | -1.97 ± 0.36 | -2.45 ± 0.41
39 | UAGGAGCAAUAUUACGUGAU | -3.75 ± 0.35 | -1.44 ± 0.3
40 | UAGGAGCAAUAUUACGUGCU | -3.16 ± 0.34 | -1.05 ± 0.23
41 | UAGUAGCAAUAUUACGAACU | -0.595 ± 0.16 | -1.05 ± 0.15
42 | UAGUAGCAAUAUUACGACUG | 0.526 ± 0.14 | -0.333 ± 0.17
43 | UAGUAGCAAUAUUACGAGUC | -4.06 ± 0.33 | -2.03 ± 0.23
44 | UAGUAGCAAUAUUACGCCAG | -2.8 ± 0.15 | -1.94 ± 0.15
45 | UAGUAGCAAUAUUACGCCCG | -0.0603 ± 0.35 | 0.255 ± 0.44
46 | UAGUAGCAAUAUUACGCGAU | -2.23 ± 0.42 | -0.904 ± 0.3
47 | UAGUAGCAAUAUUACGCGCC | -2.32 ± 0.28 | -0.984 ± 0.23
48 | UAGUAGCAAUAUUACGCUGU | -3.6 ± 0.36 | -1.91 ± 0.32
49 | UAGUAGCAAUAUUACGGAGC | -2.84 ± 0.35 | –
50 | UAGUAGCAAUAUUACGGAGG | – | -1.43 ± 0.44

Row | Sequence | self-splicing fitness (ln) (30 °C) | self-splicing fitness (ln) (37 °C)
51 | UAGUAGCAAUAUUACGGCGA | -1.17 ± 0.17 | -0.54 ± 0.17
52 | UAGUAGCAAUAUUACGGCUA | 0.21 ± 0.14 | -0.257 ± 0.19
53 | UAGUAGCAAUAUUACGGUUU | -3.57 ± 0.31 | -0.883 ± 0.16
54 | UAGUAGCAAUAUUACGUCUU | -0.75 ± 0.097 | -0.388 ± 0.11
55 | UAUAAGCAAUAUUACGAAUG | -1.24 ± 0.087 | -0.222 ± 0.11
56 | UAUAAGCAAUAUUACGAAUU | -2.74 ± 0.19 | -0.731 ± 0.2
57 | UAUAAGCAAUAUUACGACGC | -3.44 ± 0.23 | -1.19 ± 0.17
58 | UAUAAGCAAUAUUACGAGGG | -3.42 ± 0.3 | –
59 | UAUAAGCAAUAUUACGAGGU | -3.53 ± 0.23 | -2.54 ± 0.23
60 | UAUAAGCAAUAUUACGAUUA | -0.327 ± 0.073 | 0.291 ± 0.098
61 | UAUAAGCAAUAUUACGAUUC | -2.68 ± 0.15 | -1.57 ± 0.32
62 | UAUAAGCAAUAUUACGCAAC | -3.03 ± 0.4 | –
63 | UAUAAGCAAUAUUACGCACA | -0.168 ± 0.085 | -0.211 ± 0.11
64 | UAUAAGCAAUAUUACGCACG | -0.779 ± 0.16 | -0.566 ± 0.17
65 | UAUAAGCAAUAUUACGCGGA | -2.14 ± 0.18 | -0.954 ± 0.16
66 | UAUAAGCAAUAUUACGCGGU | -3.64 ± 0.26 | -3.54 ± 0.34
67 | UAUAAGCAAUAUUACGCUAC | -3.61 ± 0.21 | -1.32 ± 0.17
68 | UAUAAGCAAUAUUACGCUAG | -2 ± 0.18 | -0.688 ± 0.23
69 | UAUAAGCAAUAUUACGGAAG | -2.72 ± 0.18 | -2.05 ± 0.18
70 | UAUAAGCAAUAUUACGGAGG | -2.6 ± 0.28 | -1.67 ± 0.19
71 | UAUAAGCAAUAUUACGGCAC | -1.53 ± 0.17 | -0.422 ± 0.23
72 | UAUAAGCAAUAUUACGGCAG | -0.0494 ± 0.099 | -0.0977 ± 0.14
73 | UAUAAGCAAUAUUACGGGAU | -3.79 ± 0.32 | -2.86 ± 0.19
74 | UAUAAGCAAUAUUACGGUAU | -3.16 ± 0.16 | -2.25 ± 0.17
75 | UAUAAGCAAUAUUACGUAAA | -2.23 ± 0.12 | -0.632 ± 0.14

Row | Sequence | self-splicing fitness (ln) (30 °C) | self-splicing fitness (ln) (37 °C)
76 | UAUAAGCAAUAUUACGUACC | -2.51 ± 0.19 | -1.2 ± 0.16
77 | UAUAAGCAAUAUUACGUCCG | -0.775 ± 0.11 | -0.223 ± 0.15
78 | UAUAAGCAAUAUUACGUGUC | -3.33 ± 0.25 | -1.5 ± 0.34
79 | UAUAAGCAAUAUUACGUGUU | -3.24 ± 0.17 | -2.22 ± 0.22
80 | UAUAAGCAAUAUUACGUUCA | -0.586 ± 0.09 | -0.352 ± 0.14
81 | UAUAAGCAAUAUUACGUUCC | -1.83 ± 0.31 | –
82 | UAUAAGCAAUAUUACGUUUC | -3.5 ± 0.38 | -2.43 ± 0.35
83 | UAUCAGCAAUAUUACGAAAA | -0.436 ± 0.13 | -0.123 ± 0.17
84 | UAUCAGCAAUAUUACGAAUC | -3.49 ± 0.26 | -0.458 ± 0.14
85 | UAUCAGCAAUAUUACGACGG | -0.775 ± 0.098 | 0.242 ± 0.13
86 | UAUCAGCAAUAUUACGAGCU | -2.71 ± 0.28 | -1.35 ± 0.21
87 | UAUCAGCAAUAUUACGAGUU | -2.58 ± 0.1 | -0.829 ± 0.089
88 | UAUCAGCAAUAUUACGAUCG | -0.364 ± 0.095 | 0.612 ± 0.14
89 | UAUCAGCAAUAUUACGCAGU | -2.62 ± 0.13 | -0.577 ± 0.11
90 | UAUCAGCAAUAUUACGCCAC | -3.63 ± 0.48 | –
91 | UAUCAGCAAUAUUACGCCCU | -0.754 ± 0.11 | -0.333 ± 0.14
92 | UAUCAGCAAUAUUACGCGAA | -0.515 ± 0.12 | -0.291 ± 0.15
93 | UAUCAGCAAUAUUACGCUAG | -0.545 ± 0.1 | -0.149 ± 0.12
94 | UAUCAGCAAUAUUACGCUGU | -3.25 ± 0.2 | -2.16 ± 0.15
95 | UAUCAGCAAUAUUACGGAAG | -0.901 ± 0.1 | -0.651 ± 0.12
96 | UAUCAGCAAUAUUACGGACU | -0.533 ± 0.058 | -0.127 ± 0.071
97 | UAUCAGCAAUAUUACGGUGG | -1.2 ± 0.077 | -0.377 ± 0.088
98 | UAUCAGCAAUAUUACGUACG | -0.641 ± 0.087 | 0.404 ± 0.11
99 | UAUCAGCAAUAUUACGUCAG | -1.42 ± 0.093 | -0.143 ± 0.11
